Measured values as given in the nanobody polyreactivity screen of Harvey et al. (2022).

Assay: yeast display, Sf9 membrane polyspecificity reagent, FACS + sequencing; frameworks hold sequencing errors
Method in brief: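 A synthetic nanobody library was expressed on Saccharomyces cerevisiae BJ5465 by galactose induction for 36–48 hours. The library was stained for 1 hour at 4 °C with 10% biotinylated, detergent-solubilized Sf9 membrane reagent and enriched with streptavidin microbeads before FACS. Low and high (top ~1%) gates were set on anti-HA fluorescence for expression and streptavidin fluorescence for reagent binding, and each polyreactivity label reflects the gate of origin.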

Row | Sequence | polyreactivity (PSR sort gate)
1 | QVQLVESGGGLVQAGGSLRLSCAASASTFYTKVMGWYRPAPGKERELVAAISSSGSRTYYADSVKGRFTISRDNAKNTVYLQMNSLKPEDTAVYYCNAYYRLEPDDGDYDYWGQGTQVTVSS | high polyreactivity
2 | QVQLVESGGGLVQAGGSLRLSCAASGITFRRYAMGWYRQAPGKERELVASITSGGSTNYADSVKGRFTISRDNAKNTVYLQMNSLKPEDTAVYYCAADSRWGMDYWGQGTQVTVSS | high polyreactivity
3 | QVQLVESGGGLVQAGGSLRLSCAASGSTFYPYAMGWYRLAPGKERELVAVISSGGSTNYADSVKGRFTISRDNAKNTVYLQMNSLKPEDTAVYYCAADLAVYYIFLALEFNYWGQGTQVTVSS | low polyreactivity
4 | QVQLVESGGGLVQAGGSLRLSCAASGSTILQNAMGWYRQAPGKERELVAAISRSGGSTYYADSVKGRFTISRDNAKNTVYLQMNSLKPEDTAVYYCARRYWPGSAYWIYDYWGQGTQVTVSS | high polyreactivity
5 | QVQLVESGGGLVQAGGSLRLSCAASGRIFADYAMGWYRQAPGKETELVAAISSTSSTNYADSVKGRFTISRDNAKNTVYLQMNSLKPEDTAVYYCAKRIGHLPFRPYDYWGQGTQVTVSS | low polyreactivity
6 | QVQLVESGGGLVQAGGSLRLICAASGLTFDTYSMGWYRQAPGKERELVAAISIGGRTNYADSVKGRFTISRDNAKNTVYLQMNSLKPEDTAVYYCARVFRYNSYYLPYDYWGQGTQVTVSS | high polyreactivity
7 | QVQLVESGGGLVQAGGSLRLSCAASGRISRIYAMGWYRQAPGKERELVAAIRGRGGSTYYADSVKGRFTISRDNAKNTVYLQMNSLKPEVTAVYYCAADGWARYEYWGQGTQVTVSS | high polyreactivity
8 | QVQLVEAGGGLVQAGGILRLSSAASGSIFPLNAMGWYRQAPGKERELVAAISESGGRTYYADSVNGRFTISRDNAKNTVYLQMNSLNPEDTAVYYCATVRLARKSAPYDYWGQGTQVTVSS | high polyreactivity
9 | QVQLQESGGGLVQAGGDLRLTCAASGNIFRDYIMGWYRQAPGKEREFVAGIDRGANTNYADSVKGRFTISRDNAKNTVYLQMNSLKPEDTAVYYCAVHTAIVPDFIYWGQGTQVTVSS | low polyreactivity
10 | QVQLVESGGGLVQAGGSLRLSCAASGSIFGRYGMGWYRQAPGKERELVAAITSGTRTNYADSVKGRFTISRDNAKNTVYLQMNSLKPEDTAVYYCNALRLRGNYEYGYWGHGTQVTVSS | low polyreactivity
11 | QVHLQESGGGLMQAGGSQRLSSAASGSISYYSDMGWYRQAPGKEREFVAGIGYGTTTNYADSVKGRFTTSRDNGKNTVYLQMSSMKPEDTAVYYCAAYQGNGYEFYYWGQGTQVTVRS | low polyreactivity
12 | QVQLVESGGGLVQAGGSLRLSCAASGSILYFYAMGWYRQAPGKEREFVAAISRSGGSTRYADSVKGRFTISRDNAKNTVYLQMNSLKPEDTAVYYCAATSRSYNDYDYWGQGTQVTVSS | high polyreactivity
13 | QDQLVESGGGLVQAGGSLRLSCAAYGIIFWDNAMGWYRQAPGKERELVASINYSGGSTYYADSVKGRFTISRDNAKNTVYLQMYSLKPEDTAVYYCAARTVTLDDWDYAYDYWGQGTQVTVSS | low polyreactivity
14 | QVHLVESGGGLVQAGGSLRLSCAASGRNSLRNGMGWYKQAPGKEWELDPAITSGSSTDYADSVKGRFTISRDNAKNTVDLEMNSLKPEDTAVSYCAKDLLQYGPGAGRYDYWGQGTQVTVSS | low polyreactivity
15 | QVQLVESGGGLVQAGGSLRLSCAASGIIFRVYAMGWYRQAPGKERELVAAITKGGGRTYYADSVKGRFTISRDNAKNTVYLQMNSLKPEDTAVYYCAARSSSSFEYWGQGTQVTVSS | high polyreactivity
16 | QVQMQESRGGLVQAGGSLRLSCAASGTITTLPAMGWNRQAPGKEREFVAGIDTGAITNYADSVKGRFTISRDNAKNTVYLQKNSLKPEVTAVYYCAVFPAAYDYYERYYTYWGQGTQVTVMS | low polyreactivity
17 | QVQLGESGGGLVQAGGSLRLSCAASGRNFENNAMGWYRQAPGKERELVASIRGGGSTNYADSVKGRFTISRDNAKNTVYVQMNSLKPEDTAVYYCNADYWWSYVRFDYWGQGTQVTVSS | low polyreactivity
18 | QDQLVESGGGLVQAGGSLRLSCAASGRTFSINAMGWYRQAPGKERELVASISSRGTRTNYADSVKGRFTISRDNAKNTVYLQMNSLKPEDTGVYYCAADRYYPYYSAWREYEYWGQGTQVTVSS | high polyreactivity
19 | QVLLVESGGGLVQAGGSHRLSCAASGFIFWDYAKGGYRQAPGKERELVAAITSGGGSTYYADSVKGRFTISRDNAKNTVYLQMNSLKPEDTAVYYCNAVSWEGYDFDYWGQGTQVTVSS | high polyreactivity
20 | QVQLVESGGGLVQAGGSLRLSCAASGFIFRYYAMGWYIQAPWKERELVAAIRRGRSTYYADSVKGRFTISRDNAKYTVYLQMNSLKPEDTAVDYCAVRLVSRFGISSYDYWGQGTQVTVSS | high polyreactivity
21 | QVQLVESGGGLVQAGGSLRLTCAASGSIFVSYARGWYREAPGKERELVAAITSAGTPYYADSVKGRFTISRDNAKNTVYLQMNSLKPDDTAVYYCNTDASLKRTRVSPETEYGYWGQGTQVTVSS | low polyreactivity
22 | QVQLVESGGGLVQAGGSLRLSCAASRRIIGAYAMGWDRQAPGKEWELVARISWSGGTTYYADSVKGRFPISRDNAKNTVYLQMNSLKPEDTAVYYCAARYSYYVTGGISKYDYWGQGTQVTVSS | low polyreactivity

Row | Sequence | polyreactivity (PSR sort gate)
23 | QVQLVESGGGLVQAGGSLRLSCAASGRTLRINTMGWYRQAPGKERELVADITSSGGSTYYADSVKGRFTISRDNAKNTVYLQMNSLKPEDTAVYYCAADPIDIYYWEFDYLGQGTQVTVSS | low polyreactivity
24 | QVQLVESGGGLVQAGGSLRLSCAASGFIFPTNTMGWYRQAPGKEREFVARITRSGTNTYYADSVKGRFTISRDNAKNTVYLQMNSLKAEDTAVYYCARRGTSSYRRYWLDSASNMDYWGQGTQVTVSS | high polyreactivity
25 | QVQLVESGGGLVQAGGSLRLSCAASGSIFSSYAMGWYRQAPGKEREMVAAITYSGGRTYYADSVKGRFTISRDNAKNTVYLQMNSLKPEDTAVYYCNARKYVGFWSRYDYWGQGTQVTVSS | high polyreactivity
26 | QVQLVESGGGLVQAGGSLRLSCAASGLILAPNAMGWYRQAPGKERELVAAITFRGVRTYYADSVKGRFTISRDNEKNTVYLQMNSLKPEDTAVYYCAAAVSKHYPYNYWGQGTQVSVSS | high polyreactivity
27 | QVQLVESGGGLVQAGGSLRLSCAASGSTFPKYAMGWYRQAPGKERELVAAISWSGDSTYYADSVKGRFTISRDNAKNSVYLQMNSLNPEDTAVYYCAAYNFIHAGPWEYDYWGQGTQVSVSS | low polyreactivity
28 | QVQLVESGGGLVHAGGSLRLSCSASGRTFRHYAMGWYRQAPGKEREMVAVISWRGTGTYYADSVKGRFTISRDNAKNTVYLQMNSLKPEDTAVYYCATVWGLGYRMNYWGQGTQVTVSS | high polyreactivity
29 | QVQLVESGGGLVQAGGSLRLSCAASGFTGGRYAMGWYRQEPGKERELVDDISWSGGGTYYADSVKGRFTISRDNAKNTVYLQMNSLKPEDTAVYYCAAYWYRSYKRYGYWGQGTQVTVSS | high polyreactivity
30 | KVQLVESGGGLVQAGGSLRLSCAASGRIFGRNAMGGYRQAPGKERELVAAINVSSGGTYYADSVKGRFTISRDNAKNTVYLQMNSLKPEDTAVYFCAARARWAGLRYTRYYYWGQGTQVTVSS | high polyreactivity
31 | QVQLVESGGGLVQAGGSLRLSCAASGFTVRKYAMGWYRQAPGKERELVAAITWSGGRTYYADSVKGRFTISRDNAKNTVSLQMNSLKPEDTAVYYCAAVIQSRKYDSWGQGTQVTVSS | high polyreactivity
32 | QVQLVESGGGLVQAGGSLRLSCAASGSIFRYYTMGWYRQAPGKERELVAGINRGGRTYYADSVKGRYTISRDNAKNTVYLQMNSLKPEDTAVYYCAAVTYYGFDYWGQGTQVTVSS | high polyreactivity
33 | QVHLVESGGGLVQAGGSLRLSCAASGFIFHYNAMGWYRQAPGKERELVAAITSGDSTDYADSVKGRFTISRDNAKNTVYLQMNSLIPEDTAVYYCAAYHREGRRDDYWGQGTQVTVSS | low polyreactivity
34 | QVQLVESGGGLVQAGGSLSLSCAASGRTFYTNAMGSSRQAPGKERELVAAISLRDVNTYYADSVKGRFTISRDNAKNTVYLQMNSLKPEDTAVYYCAARSRRRFDWGQGTQVTVSS | high polyreactivity
35 | QVQLVESGGGLVQAGGILRLSCAAAGFIFYRYAMGWYREAPGKEREFVAAISRSGGSTYYADSVKGRFTISRDNAKNTVYLQMNSLKPEDTAVYYCAAGRVTISYFQDRLTTYDYWGQGTQVTVSS | high polyreactivity
36 | QVQLVESGGGLVQAGGSLRLTCAASGRIFALYAMGWYRQAPGKERELVAAITSGSTYYADSVKGRFTISRDNAKNTVYLQMNSLKPEDTAVYYCAADANYYPTEYYPFDYWGQGTQVTVSS | low polyreactivity
37 | QVQLVESGGGLVQAGGSLRLSCPASGRIFPKNAMGWYRQAPGKERELVAAIDYSDGSTNYADSVKGRFTFSRDTAKNTVYLQMNSLKPDDTAVYYCAIVAVPSYDYWGQGTKVTVSS | low polyreactivity
38 | QVQLVESGGGLVQAGGSLRLSCAASGRIFWSYAMGWYRQAPGKERELVAAISYSGGGTYYADSVKGRFTISRDNAKNTVYLQMNSLKPEDTAVYYCAAETYYAPYDYWGQGTQVTVSS | high polyreactivity
39 | QVQLVESGGGLVQAGGSLRLSCAASGRIFIYNAMGWYTQAPGKERELVAAINRSGVSTHYADSVKGRFTISRDNAKNSVYLQMNSLKPEDTAVYYCARTVYGARSYDYWGQGTQVTVSS | low polyreactivity
40 | QVQLVESGGGLVQEGGSLRLSCAATGSTFDANAMGWYRQAPGKERELVATISDGGSTNYADSVKGRFTISRDNAKNTVYLQMNSLKPEDTAVYYCAAVKLFLGLGYDYWGQGTQVTVSS | low polyreactivity
41 | QVQLVESGGGLVQAGGSLRLSCAASGFIFTVNAMGWYRQAPGKERELVAAITQSGGNTSYADSVKGRFTISRDNAKNTVYLQMNSLKPEDTAVYYCNASSDTSRYGVSTYYYWGQGTQVTVSS | low polyreactivity
42 | QVQLVESGGGLVQAGGSLRLSCAASGRTFYANAMGWYRQAPGKERELVAAISSSGSRTYYADSVKGRFTISRDNAKNTVYLQMNSLKPEDTAVYYCNAAAPYLTRQHWARDYWGQGTQVTVSS | high polyreactivity
43 | QVQLVESGGGLVQAGGSLRLSCAASGRIFGRYAMGWYRPAPGKERELVAGISARGGSTYYADSVKGRFTISRDNAKNTVYLQMNSLKPEDTAVYYCAARPYSIVPYDYWGQGTQVTVSS | high polyreactivity
